Results published in patent publication US20240092924A1.

Biological target: wild-type human sodium taurocholate cotransporting polypeptide (human NTCP) (human) (UniProt Q14973)
Test: cell-based or functional assay

wild-type human sodium taurocholate cotransporting polypeptide (human NTCP) (human), sequence (Q14973 whole entry): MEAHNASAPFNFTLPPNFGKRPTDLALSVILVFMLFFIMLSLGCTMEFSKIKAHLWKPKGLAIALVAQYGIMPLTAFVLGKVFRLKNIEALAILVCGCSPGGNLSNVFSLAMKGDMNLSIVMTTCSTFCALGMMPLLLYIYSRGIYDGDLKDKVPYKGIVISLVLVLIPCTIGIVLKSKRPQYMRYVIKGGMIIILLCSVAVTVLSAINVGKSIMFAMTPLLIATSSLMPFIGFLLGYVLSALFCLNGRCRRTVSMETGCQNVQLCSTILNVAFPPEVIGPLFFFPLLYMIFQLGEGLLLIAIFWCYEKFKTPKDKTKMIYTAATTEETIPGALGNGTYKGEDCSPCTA

Substance: preS1 peptide
- [3H]-taurocholic acid uptake by HepG2-human NTCP cells, at 1000 nM (fraction of uptake remaining): 0.05
- inhibition of [3H]-taurocholic acid uptake by human NTCP-expressing HepG2, at 100 nM: 60%
- inhibition of [3H]-taurocholic acid uptake by human NTCP-expressing HepG2, at 1000 nM: 96%
- suppression of bile acid uptake into a hepatocyte cell line, at 1000 nM (FIG. 3 legend): < 90%
